{"source": "paper PMC6911355", "key": {"[1]": {"target": "TDP-43 1-260 (NTD-RRM1-RRM2) (human, UniProt Q13148 1-260)", "sequence (Q13148 1-260)": "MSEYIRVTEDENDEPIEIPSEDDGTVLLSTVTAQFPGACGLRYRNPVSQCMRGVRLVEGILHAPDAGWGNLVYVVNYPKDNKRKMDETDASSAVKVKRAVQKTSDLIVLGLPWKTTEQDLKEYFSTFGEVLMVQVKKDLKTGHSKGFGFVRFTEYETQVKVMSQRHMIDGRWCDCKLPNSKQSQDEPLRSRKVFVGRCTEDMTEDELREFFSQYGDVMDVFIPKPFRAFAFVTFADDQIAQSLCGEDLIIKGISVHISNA", "assay": "ALPHA"}, "[2]": {"target": "TDP-43 102-269 (RRM1-RRM2) (human, UniProt Q13148 102-269)", "sequence (Q13148 102-269)": "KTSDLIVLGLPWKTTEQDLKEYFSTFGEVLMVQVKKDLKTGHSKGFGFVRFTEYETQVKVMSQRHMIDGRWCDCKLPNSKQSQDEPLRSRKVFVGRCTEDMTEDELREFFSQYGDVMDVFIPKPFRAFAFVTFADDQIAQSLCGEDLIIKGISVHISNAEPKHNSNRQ", "assay": "ALPHA"}}, "data": [{"binder": "UGUGUGUGUGUG (ssRNA)", "note": "[(UG)6]", "values": [{"measurement": "Kd", "setting": "[1]", "result": "0.4 ± 0.04", "unit": "nM"}, {"measurement": "Kd", "setting": "[2]", "result": "0.73 ± 0.1", "unit": "nM"}]}]}
